This series in a line: label from the status in PepcDB records.
In the case of “VDVENPILITSFPGIGLVGTIATAHYIMELKLESIGIVDSRLLPPVASLYEGVILPPVRVYQSADLGFVLIHSDVPIIPQAAIDMSKKIVQFAAEINARRVYSFAGVATFEDKKRVFAAATSKELLEEVKDHAEIFKTGTISGIAGSIMNECVAAKMPGIVLLGETLGFNPDPRAAASLIEAVNKIMNWNVSVEKLLKEAEMIEAQMQKLAEQARMQEERKEEFPMYG”, the protein production result was “failed”.

For the sequence “VEGRTVTYGQQNGTARTGYLAAPADVDSVRSARGGDALPGIVVIHEWWGLNDNVRAATRRLAGEGYRALAVDLYGGAVAETPDSAQALMGQAMREPSRLVENVRDGRAYLSSEADAPRTALLGWCFGGGMTYRTLAEEASAFDAAVAYYGTPDPLAGEALQALETPILAHFGTQDQAVPIDAARKFRDRMEDAGTSLAYHEYDAGHAFANPSGESYEPAAAEQAWTRTTDFLQTHL”, the protein production entry is “failed”.

With “VEIRTGEFEDVAGITDIFNFYIEHTNARFEEFPFTLENREEWFSQFSRTTKYQIYVAVENGVLQGFACSQKYRAIPAFDDTVEVSVYLAQEAKGKGLGSKLYTQLFSSIRAYGVHRILSGVALPNDASVALHKRFGFREVGIFNEYAKKHGQYISSVWLEKALNVESAL”, the protein production result is “not failed”.

“VEPSEENSKDCVVCQNGTVNWVLLPCRHTCLCDGCVKYFQQCPMCRQFVQESFAL”: the protein production result is listed as “not failed”.

On to “VGSVLEIKDPENLKNLGSLIGEEIAKLHQALNSVNSNNELVKRELYKLVYEWALPNLEKNEHVDQDVVRTMNQIHSDFKKTITSLRKQIIHRDMHLSNVIFKDNEFQGFIDFELLERNVRVFDLCYCCTSILSELHSDEELRGKWQHIISKIFEGYNKQSILTREELQAIWYVMLSIQVIFITYFVQLPDLLKLNEEMFF”, for which the protein production result is recorded as “failed”.

With “VHCLFVGAGSIAAEYAAELADSPLSLAGVCDLEEDRATALAAAHDCPAFTDLDTALSAVDAPLVVNLTNHAAHAPVTRTALEAGRHVYSQKPLALDEAAAAELLALAQDRNLALGCAPGTPDAPSQRRAGQMLADGRMGPVQLGYAHAHVGRV”, the protein production entry is listed as “failed”.

Regarding “VIKFSSEDCGTCHKMSHYDANVAEELGAEFVSVMLQDTEAYRKYRKVLLKQYPNKEGMGWPTYLLVTDPEGDFTIHGELKGGMPKGEFRTRLGALLA”, the protein production entry is “failed”.

“VKNGNDTRMTLLNNWESTYFDFDENKLIGLMDEATKLGVDMFLLDDGWFANKYPRSSDHQGLGDWEETADKLPNGVGRLVEEAQKKGIKFGIWIEPEMVNPKSELYEKHKDWVIHLPNRDEYYFRNQMVLDLSNPKVQDHVFGVVDNLMTKYPGIAFFKWDCNSPITNIYSVYLKDKQSHLYVDYVRGLYKVLDRIKAKYPNLPMMLCAGGGGRSDYEALKYFTEFWPSDNTDPIERLFIQWGYSQIFPSKTLCAHVTTWNRGTSIKFRTDVAMMCKLGFDIKLEDMNQNEHLYCDQAVKNYNRLKPVILEG”: the protein production result is reported as “failed”.

In the case of “VKSKAKKTVDAHSDEYKIRRERNNIAVRKSRDKAKMRNLETQHKVLELTAENERLQKKVEQLSRELSTLRNLFKQLPE”, the protein production result was “not failed”.

On to “VKTPGTRYVTHKQLDEKLKNFVTKTEFKEFQTVVMESFAVQNQNIDAQGEQIKELQVEQKAQGKTLQLILEALQGINKRLDNLES”, for which the protein production result was “not failed”.

As to “VKTWPAPTAPTPVRATVTVPGSKSQTNRALVLAALAAAQGRGASTISGALRSRDTELMLDALQTLGLRVDGVGSELTVSGRIEPGPGARVDCGLAGTVLRFVPPLAALGSVPVTFDGDQQARGRPIAPLLDALRELGVAVDGTGLPFRVRGNGSLAGGTVAIDASASSQFVSGLLLSAASFTDGLTVQHTGSSLPSAPHIAMTAAMLRQAGVDIDDSTPNRWQVRPGPVAARRWDIEPDLTNAVAFLSAAVVSGGTVRITGWPRVSVQPADHILAILRQLNAVVIHADSSLEVRGPTGYDGFDVDLRAVGELTPSVAALAALASPGSVSRLSGIAHLRGHETDRLAALSTEINRLGGTCRETPDGLVITATPLRPGIWRAYADHRMAMAGAIIGLRVAGVEVDDIAATTKTLPEFPRLWAEMVGPGQGWGYPQPRSGQRARRATGQGSGG”, the protein production entry is “not failed”.

With “VLASILLSQAAYESNYGSSLLSVKYHNIYSLPARPGQEHIYLKDNVYSKGKWQYQKVDFAVFRDWSSSMSSYLEELRQGRWGESTYKEVAGTTSYKVAAEKLQAAGFNSDPDYTKHLISIIETYNL”, the protein production result is reported as “failed”.

For “VPLEARMKQFKDMLLERGVSAFSTWEKELHKIVFDPRYLLLNPKERKQVFDQYV”, the protein production result is recorded as “failed”.

Regarding “VPPDTLHSLPKSQVKRQEVISELLVTEAAHVRMLRVLHDLFFQPMAECLFFPLEELQNIFPSLDELIEVHSLFLDRLMKRRQESGYLIEEIGDVLLARFDGAEGSWFQKISSRFCSRQSFALEQLKAKQRKDPRFCAFVQEAESRPRCRRLQLKDMIPTEMQRLTKYPLLLQSIGQNTEEPTEREKVELAAECCREILHHVNQAVRDMEDLLRLKDYQRRLDLSHLRQSSDPMLSEFKNLDITKKKLVHEGPLTWRVTKDKAVEVHV”, the protein production entry is given as “failed”.

In the case of “VSERKAMQKRLTRRERRFRMMFEGHSAPMLLIDEETGAIEQANAAAVEFYGYERDILMSMSIQDINQLPAEEVARERREAAEDGDEFLFEHELASGAVRTVRVLSAPIPNLDRAGTLLFSVIHD”, the protein production entry is on record as “failed”.

As for “VSGFQRLQKPVVSQPDFRRQPVSETMQVYLKQAADPGRDVGLYWMATDFENRRFPGKVSPSGFQKLYRQWRNQTGWDAYVQSCRAIWNDVKYFPIPQSLDDTEDKISYVDSWMFERNYGGKRGHEGTDIMAEKNTPGYYPVVSMTDGVVTEKGWLEKGGWRIGITAPTGAYFYYAHLDSYAELEKGDPVKAGDLLGYMGDSGYGEEGTTGEFPVHLHLGIYLKEGTEEISVNPYPVLRYAENARIKCVYSR”, the protein production entry is on record as “not failed”.

For “VSVGTHPTFENSPSGTVLTSPPDGSAVDRATDAARRVVDALLRTDRGNANLERVAEELNSIAGHLEEHAPAVAERLIDMWNGEGVTRHDPVTGPENALAPPVVLEGLSDGSVRGTVTLTIPYQGPPGHVHGGVSALLLDHVLGVANAWGGKAGMTAQLSTRYHRPTPLFEPLTLTGKLMSVDGRKITTAGDIRTADGQVCVSVEGLFVDKTVPRPR”, the protein production entry is “not failed”.

For the sequence “VTDILREIGMIARALDSISNIEFKELSLTRGQYLYLVRVCENPGIIQEKIAELIKVDRTTAARAIKRLEEQGFIYRQEDASNKKIKRIYATEKGKNVYPIIVRENQHSNQVALQGLSEVEISQLADYLVRMRKNVSEDWEFVKKGNTRNY”, the protein production entry was “not failed”.

On to “VTIDNIQKTVAEYYKIKVADLLSKRRSRSVARPRQXAXALAKELTNHSLPEIGDAFGGRDHTTVLHACRKIEQLREESHDIKEDFSNLIRTLSS”, for which the protein production result is on record as “not failed”.

Take “VTRRIAICAPSTPFTREDSARVIALAAAEFPDLSLSFHEQCFASEGHFAGSDALRLSAFLECANDDAFEAVWFVRGGYGANRIAEDALARLGRAASAKQYLGYSDAGTLLAALYAHRIGRSVHAPMPVDIRRPEGESAVRRTLGWLAGAREGLEPTLGAGAPAVAFNLMTLAMLCGTRLLPDLSGHVVMIEEVAEHHYAVDRLLFHVTSCLADAGIAGLRLGRVSDVPENDRPFGCSVEEMARHWCHRAGIAFLGTADIGHDVDNRIVPFGLA”: the protein production entry was “not failed”.

Consider “VVAPITTGYTVKISNYGWDQSDKFVKIYITLTGVHQVPTENVQVHFTERSFDLLVKNLNGKSYSMIVNNLLKPISVEGSSKKVKTDTVLILCRKKVENTRWDYLTQVEKECKEK”, for which the protein production result is “not failed”.

As to “VVFFRHLVSDDGSVRHTGDNLVGGVGQGGDDEAILVDLQRVPVHIDQIVFTVNSFTGQTFQEVQNAFCRLVDETNGQELARYTLAGGGAFTAQIMAKVHRAGQGWSMTAIGTPANGRTFQDLMPAILPVL”, the protein production entry is recorded as “failed”.

For the sequence “VVKVALFVRLEAKPGKEKEVESFLMGGLPIVNEEPATTAWFGIRLGPSTFGIFDAFPNEAGRQAHLSGKVAAALMAKAGELFSEPPSIEKVDILAAKLPG”, the protein production entry is recorded as “failed”.

As for “VYPLELTLEEIFHGCLKKVAHKRKVLLFSGEYVEEERQLTVDVKPGLPTGTRFVFEGEGNKTPKKEPGPVVFVLKPKPHPRFVRRGSDLVHKVTLPLHHALIGTTLDIRTLDDRDLKVPISDIMRPGSSLTVPGEGMPLPATPSARGNLVIEIDLLFPTHLTETQKMLLRSAF”, the protein production result is listed as “not failed”.

Take “WERLRMLLEVCQFSRDASVAEAWLIAQEPYLASGDFGHTVDSVEKLIKRHEAFEKSTASWAERFAALEKPTTLELKERQIA”: the protein production entry is on record as “failed”.

As for “WGLSVERSTYFLAPADRHYLADYARQAEDAWRREGAAGAERFRKELSAKEDTWVALVGPHLESLGSTPLSAEESSHLTFMRKLDWPMSRRLQDELPYVSIEFPGHPEQGRLVIQLPERLLPG”, the protein production entry is listed as “not failed”.

In the case of “WILWSLTKISNHQEINEIIDQILQLTSDVFAADYTSVSFINNQQIARTISYYKFGKKEENISFSLINTPCAKVIQTKAICYFNDVQKQFPNDKLLKKMKINTYLAGPITNTQDEVIGIMTILCKRKVEFDTLNNTLFGLFLSRINSEIERLINLRKLE”, the protein production result is on record as “failed”.

For the sequence “WKTGGRFLTLGVTLIMFIIVSNFLGLPFMYSATEAGEHIAWWRSPTSDPAVTLTLAVMVVTLTHYYGIKMKGTKEYVKGYFQPMKFLFPLKVIEEFANTLTLGLRLFGNIYAGEILLGLLAKLGGASFLGALGALVPMLAWMGFSVFVGSIQAFIFVMLTMVYMAHKVSHDH”, the protein production result is recorded as “failed”.

On to “WTGEDSAEPNSDSAEWIRDMYAKVTEIWQEVMQRRDDDGTLHAACQVQPSATLDAAQPRVTGVVLFRQLAPRAKLDAFFALEGFP”, for which the protein production result is reported as “failed”.

“WVSNIDPAETFRHTELHVVKSVYDGLLTQNSNGGIEPALAHEWKMEENVMTLWLRPGIFRHDGELLSIDDVVWSLERLKQIKGPVYELWQCIETVTAETPNCLKIVLKRANQFFPYMLATPHASILCRDTASFGSGYSYHIGTGPFRISSWN”: the protein production result is given as “failed”.

For the sequence “YAHLRAGALRRLLQAQRLLPTGVRFLVLEGYRPPQLQRRYFEEYAATMRAAHPDEAPDRIRELTSAYISPPEVAPHVSGGAVDLTLCGADGTELPLGTEVNATPEESEGACRTAAPNISVEARANRAVMDRALTAVGFVNYPTEWWHWSYGDR”, the protein production entry is reported as “failed”.

“YCVRGEKLVLFVTGVCPRNCFYCPLSPWRRKDVAYANERPIRKIEDIIEEAKIQEARGAGVTGGDPLARLNRTVEYIRTLKEEFGKKFHIHLYTTGILADKRALSMLYDAGL”: the protein production result is “failed”.

In the case of “YESIDLKAVLFDMDGVLFDSMPNHAESWHKIMKRFGFGLSREEAYMHEGRTGASTINIVSRRERGHDATEEEIKAIYQAKTEEFNKCPKAERMPGALEVLTKIKSEGLTPMVVTGSGQTSLLDRLNHNFPGIFQANLMVTAFDVKYGKPNPEPYLMALKKGGFKPNEALVIENAPLGVQAGVAAGIFTIAVNTGPLHDNVLLNEGANLLFHSMPDFNKNWETLQSALKQ”, the protein production entry is “failed”.

The values above are taken from a protein production outcome set (Wang et al. 2014).
